Data: patent US7727960B2, “C5a receptor antagonists” (Jerini AG, priority 2003, dated 2010)
Starred links: 1 amine or outer side, 2 acyl side, 3 side chain; linkers in the order of their positions; H or OH if unused. Positions of bridges follow the written chain, without caps; N, C: chain ends. Non-standard residues stand in square brackets, D forms with d. No end group written: not given here. *: point of attachment. Fck = HO-CH2-(CHOH)4-C=N-O-CH2-CO- (oxime-linked sugar acyl cap); Ebo = Cys(4-picolyl), O=C([C@H](CSCc1ccncc1)N[*:1])[*:2]; Ebu = Cys(3-picolyl), O=C([C@H](CSCc1cccnc1)N[*:1])[*:2]; Ecg = Cys(2-picolyl), O=C([C@H](CSCc1ccccn1)N[*:1])[*:2]; Phe(F5) = N[C@@H](Cc1c(F)c(F)c(F)c(F)c1F)C(=O)O; Phe(4-tBu) = CC(C)(C)c1ccc(C[C@H](N)C(=O)O)cc1; Fbo = morpholine-4-carbonyl, O=C(N1CCOCC1)*; 2Nal = N[C@@H](Cc1ccc2ccccc2c1)C(=O)O; d(hLeu) = CC(C)CC[C@@H](N)C(=O)O; hCit = NC(=O)NCCCC[C@H](N)C(=O)O; αMeF = C[C@](N)(Cc1ccccc1)C(=O)O; Cha = N[C@@H](CC1CCCCC1)C(=O)O; dCha = N[C@H](CC1CCCCC1)C(=O)O; Nle = CCCC[C@H](N)C(=O)O; Orn = NCCC[C@H](N)C(=O)O; Aze = O=C(O)[C@@H]1CCN1; Ecf = Cys(O-3-picolyl); Fbn = not defined here

T1: human C5aR (CD88) (human, UniProt P21730 1-350)
T1 sequence (looked up): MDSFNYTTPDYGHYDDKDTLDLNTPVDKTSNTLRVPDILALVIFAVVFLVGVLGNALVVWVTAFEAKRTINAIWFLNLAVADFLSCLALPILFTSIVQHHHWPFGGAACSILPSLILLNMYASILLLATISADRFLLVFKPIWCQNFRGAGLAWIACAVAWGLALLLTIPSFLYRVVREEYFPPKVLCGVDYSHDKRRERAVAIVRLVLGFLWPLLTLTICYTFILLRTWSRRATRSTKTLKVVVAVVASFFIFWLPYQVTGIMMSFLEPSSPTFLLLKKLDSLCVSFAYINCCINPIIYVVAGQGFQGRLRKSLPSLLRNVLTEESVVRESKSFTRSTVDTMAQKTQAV


Target: T1, human C5aR (CD88)
Test: cell-based or functional assay

| Molecule | IC50 activity group, enzyme release assay | EC50, agonistic activity, enzyme release assay |
| --- | --- | --- |
| Ac-Mff-Orn-Pro-cha-Bta-Phe-NH2 (peptide) | < 200 nM | – |
| Ac-Phe-[Orn-Hyp-hle-Pff-Nle] (peptide) | < 200 nM | – |
| Ac-NMF-Orn-Pro-cha-Bta-Phe-NH2 (peptide) | < 200 nM | – |
| Ac-Phe-Orn-Pro-hle-Tff-Phe-NH2 (peptide) | < 200 nM | – |
| H-Phe-[Orn-Hyp-hle-Mcf-Leu] (peptide) | < 200 nM | – |
| H-Phe-[Orn-Pro-cha-Pff-Phe] (peptide) | < 200 nM | – |
| H-Phe-[Orn-Ser-hle-Mcf-Leu] (peptide) | < 200 nM | – |
| Ac-Phe-Orn-Pip-cha-Trp-Phe-OH (peptide) | < 2000 nM | – |
| Ac-Phe-Har-Aze-cha-Bta-Phe-NH2 (peptide) | < 20 nM | – |
| Ac-Phe-Eep-Pro-cha-Bta-Phe-NH2 (peptide) | < 200 nM | – |
| Ac-Phe-Orn-Tic-cha-Trp-Phe-NH2 (peptide) | < 200 nM | – |
| Ac-Phe-Orn-Pro-cha-Bta-Eaa-NH2 (peptide) | < 200 nM | – |
| Ac-Phe-Orn-Pro-hle-Mff-Phe-NH2 (peptide) | < 200 nM | – |
| Ac-Phe-[Orn-Chy-cha-Trp-Nle] (peptide) | < 200 nM | – |
| Ac-Phe-Guf-Pro-cha-Bta-Phe-NH2 (peptide) | < 50 nM | – |
| Me-O-CO-Phe-Orn-Pro-cha-Bta-Phe-NH2 (peptide) | < 200 nM | – |
| Ac-Eby-Orn-Pro-cha-Bta-Phe-NH2 (peptide) | < 50 nM | – |
| Ac-Phe-Dab-Aze-hle-Bta-Phe-NH2 (peptide) | < 50 nM | – |
| Ac-Phe-[Orn-Aze-cha-Trp-Nle] (peptide) | < 200 nM | – |
| Ac-Phe-Orn-Ser-cha-Bta-Phe-NH2 (peptide) | < 50 nM | – |
| Ac-Off-Orn-Pro-hle-Bta-Phe-NH2 (peptide) | < 50 nM | – |
| Ac-Thr-Phe-Orn-Aze-cha-Bta-Phe-NH2 (peptide) | < 50 nM | – |
| Ac-Phe-Orn-Pro-hle-Bta-Pff-NH2 (peptide) | < 200 nM | – |
| Ac-Ser-Phe-Orn-Aze-cha-Bta-Phe-NH2 (peptide) | < 20 nM | – |
| Ac-Phe-Orn-Pro-hle-Bta-Egy-NH2 (peptide) | < 200 nM | – |
| Ac-Phe-Orn-Pro-hle-Egc-Phe-NH2 (peptide) | < 200 nM | – |
| Ac-Phe-Orn-Hyp-hle-Pff-Phe-NH2 (peptide) | < 200 nM | – |

Results, then the molecule that gave them:

| IC50 activity group, enzyme release assay | EC50, agonistic activity, enzyme release assay | Molecule |
| --- | --- | --- |
| < 200 nM | – | Ac-Orn-Phe-Orn-Aze-cha-Bta-Phe-NH2 (peptide) |
| < 200 nM | – | Ac-Phe-[Orn-Pro-hle-Pff-Phe] (peptide) |
| < 50 nM | – | Ac-Phe-Orn-Pro-ctb-Bta-Phe-NH2 (peptide) |
| < 200 nM | – | Ac-Phe-Orn-Pro-omf-Bta-Phe-NH2 (peptide) |
| < 20 nM | – | Ac-Phe-Orn-Pro-hle-Bta-Phe-NH2 (peptide) |
| < 50 nM | – | Ac-Gly-Thi-Orn-Aze-cha-Bta-Phe-NH2 (peptide) |
| < 200 nM | – | Ac-Phe-Orn-Pro-hle-Off-Phe-NH2 (peptide) |
| < 20 nM | – | Ac-Phe-[Orn-Hyp-cha-Trp-Nle] (peptide) |
| < 200 nM | – | Ac-Phe-Orn-Pro-hle-Dff-Phe-NH2 (peptide) |
| < 200 nM | – | Ac-Phe-Mpa-Pro-cha-Bta-Phe-NH2 (peptide) |
| < 200 nM | – | Ac-Phe-[Orn-Pro-cha-Pff-Phe] (peptide) |
| < 200 nM | – | 3PP-Orn-Aze-cha-Bta-Phe-NH2 (peptide) |
| < 200 nM | – | Ac-Phe-Orn-Pro-cha-Bta-Cha-NH2 (peptide) |
| – | 2.4 nM | hrC5a (from UniProt P01031 678-751) (ligand) |
| < 200 nM | – | Ac-Phe-Orn-Pro-hle-Bta-Cha-NH2 (peptide) |
| < 200 nM | – | tBu-CO-Phe-Orn-Pro-cha-Bta-Phe-NH2 (peptide) |
| < 200 nM | – | Ac-Phe-Orn-Pro-hle-Pff-Eaa-NH2 (peptide) |
| < 200 nM | – | Ac-Phe-[Orn-Ser-cha-Trp-Nle] (peptide) |
| < 200 nM | – | H-Phe-[Orn-Ser-hle-Ocf-Nle] (peptide) |
| < 200 nM | – | H-Phe-Cit-Pro-hle-Bta-Phe-NH2 (peptide) |
| < 200 nM | – | H-Phe-[Orn-Hyp-hle-Trp-Nva] (peptide) |

Target: T1, human C5aR (CD88)
Test: cell-based or functional assay
Remark: another data set of the same source

| Molecule | IC50 activity group, enzyme release assay |
| --- | --- |
| Fbo-F[Orn]P[dCha]W[Nle] (lactam 2-C (inferred)) [Fbo-Phe-[Orn-Pro-cha-Trp-Nle]] | ≤ 200 nM |
| H-F[Orn]P[dCha]W[Nle] (lactam 2-C) [H-Phe-[Orn-Pro-cha-Trp-Nle]] | ≤ 200 nM |
| H-F[Orn]S[dCha]WF (lactam 2-C; SMILES N[C@@H](Cc1ccccc1)C(=O)N[C@H]1CCCNC(=O)[C@H](Cc2ccccc2)NC(=O)[C@H](Cc2c[nH]c3ccccc23)NC(=O)[C@@H](CC2CCCCC2)NC(=O)[C@H](CO)NC1=O) [H-Phe-[Orn-Ser-cha-Trp-Phe]] | ≤ 50 nM |
| FXPXWX (not fully specified; Ac-; Orn2; cha4 (D); Eew6; cyclic [2-6]) [Ac-Phe-[Orn-Pro-cha-Trp-Eew]] | ≤ 2000 nM |
| Ac-F[Orn]P[dCha]W-{NH‑CH2‑CH2‑Ph} [Ac-Phe-Orn-Pro-cha-Trp-NH-CH2-CH2-Ph] | ≤ 2000 nM |
| Ac-F[Orn]P[dCha]W[Ebo] (lactam (positions not given here); not fully specified (bridges); printed as Ac-Phe-[Orn-Pro-cha-Trp-Ebo]) [Ac-Phe-[Orn-Pro-cha-Trp-Ebo]] | ≤ 2000 nM |
| Ac-F[Orn]P[dCha]W[Ebu] (lactam (positions not given here); not fully specified (bridges); printed as Ac-Phe-[Orn-Pro-cha-Trp-Ebu]) [Ac-Phe-[Orn-Pro-cha-Trp-Ebu]] | ≤ 2000 nM |
| H-[αMeF][Orn][Aze][d(hLeu)][Phe(F5)][Nle] (lactam 2-C; SMILES CCCC[C@@H]1NC(=O)[C@H](Cc2c(F)c(F)c(F)c(F)c2F)NC(=O)[C@@H](CCC(C)C)NC(=O)[C@@H]2CCN2C(=O)[C@@H](NC(=O)[C@@](C)(N)Cc2ccccc2)CCCNC1=O) [H-Amf-[Orn-Aze-hle-Pff-Nle]] | ≤ 200 nM |
| Ac-F[Orn]P[dCha]W[Cha]-NH2 [Ac-Phe-Orn-Pro-cha-Trp-Cha-NH2] | ≤ 200 nM |
| Ac-F[Orn]P[dCha]W[2Nal]-NH2 [Ac-Phe-Orn-Pro-cha-Trp-2Ni-NH2] | ≤ 50 nM |

Second part, the molecule after the results:

| IC50 activity group, enzyme release assay | Molecule |
| --- | --- |
| ≤ 200 nM | Fck-F[Orn]P[dCha]W[Nle] (lactam 2-C (inferred)) [Fck-Phe-[Orn-Pro-cha-Trp-Nle]] |
| ≤ 2000 nM | Ac-F[Orn]P[dCha]W[Ecf] (lactam (positions not given here); not fully specified (bridges); printed as Ac-Phe-[Orn-Pro-cha-Trp-Ecf]) [Ac-Phe-[Orn-Pro-cha-Trp-Ecf]] |
| ≤ 2000 nM | Ac-F[Orn]P[dCha]W[Ecg] (lactam (positions not given here); not fully specified (bridges); printed as Ac-Phe-[Orn-Pro-cha-Trp-Ecg]) [Ac-Phe-[Orn-Pro-cha-Trp-Ecg]] |
| ≤ 200 nM | Fck-F[Orn]P[dCha]W[Nle] (bridge (positions not given here); not fully specified; printed as Fck-[Phe-Orn-Pro-cha-Trp-Nle]; also: cyclic [1-6], linkage not given here) [Fck-[Phe-Orn-Pro-cha-Trp-Nle]] |
| ≤ 2000 nM | {Ph2‑CH‑CH2‑CO}-[Orn]P[dCha]WF-NH2 [Ph2-CH-CH2-CO-Orn-Pro-cha-Trp-Phe-NH2] |
| ≤ 2000 nM | Ac-F[Orn]P[dCha]W[Phe(4-tBu)]-NH2 [Ac-Phe-Orn-Pro-cha-Trp-Eap-NH2] |
| ≤ 50 nM | H-F[Orn]P[d(hLeu)]W[Nle] (lactam 2-C) [H-Phe-[Orn-Pro-hle-Trp-Nle]] |
| ≤ 200 nM | Fbn-F[Orn]P[dCha]W[Nle] (lactam 2-C; reading uncertain; also: printed as Fbn-Phe-[Orn-Pro-cha-Trp-Nle]) [Fbn-Phe-[Orn-Pro-cha-Trp-Nle]] |
| ≤ 2000 nM | Ac-F[Orn]P[dCha]W[hCit] (lactam (positions not given here); not fully specified (bridges); printed as Ac-Phe-[Orn-Pro-cha-Trp-Hci]) [Ac-Phe-[Orn-Pro-cha-Trp-Hci]] |
